Results reported in US20170166655A1.

Experiments:
[1] = molecular target: human V158 FcγRIIIa, extracellular region (human) (UniProt P08637); assay: SPR
[2] = molecular target: F158 FcγRIIIa (human) (UniProt P08637); assay: SPR
[3] = molecular target: FcγRI (human) (UniProt P12314); assay: SPR
[4] = molecular target: FcγRIIb (human) (UniProt P31994); assay: SPR
[5] = molecular target: H131 FcγRIIa (human) (UniProt P12318); assay: SPR
[6] = molecular target: R131 FcγRIIa (human) (UniProt P12318); assay: SPR
[7] = molecular target: V158 FcγRIIIa (human) (UniProt P08637); assay: SPR
[8] = molecular target: human V158 FcγRIIIa, extracellular region (human) (UniProt P08637); assay: AlphaScreen competition
[9] = molecular target: human F158 FcγRIIIa, extracellular region (human) (UniProt P08637); assay: SPR
[10] = molecular target: human FcγRIIIa on human PBMC effector cells (human) (UniProt P08637); assay: cell-based or functional assay
[11] = molecular target: human F158 FcγRIIIa, extracellular region (human) (UniProt P08637); assay: AlphaScreen competition

## alemtuzumab IgG1 S267E (antibody)
[1]
  Fold WT: 2.62 fold

## alemtuzumab IgG1 E283H (antibody)
[1]
  Fold WT: 2.31 fold

## alemtuzumab IgG1 V284E (antibody)
[1]
  Fold WT: 1.51 fold

## IgG2_S239D/I332E/^V234L
[2]
  Kd: 96.2 nM
[3]
  Kd: 0.634 nM
[4]
  Kd: 95.8 nM
[5]
  Kd: 29 nM
[6]
  Kd: 27.8 nM
[7]
  Kd: 33.7 nM

## alemtuzumab IgG1 E272P (antibody)
[8]
  Fold WT: 1.46 fold
[1]
  Fold WT: 1.41 fold

## alemtuzumab IgG1 H268D (antibody)
[1]
  Fold WT: 5.66 fold

## alemtuzumab IgG1 I332E (antibody)
[9]
  Kd: 72 nM
[1]
  Kd: 31 nM

## alemtuzumab IgG1 E283L (antibody)
[1]
  Fold WT: 2.56 fold

## IgG2_P233E/V234L/A235L/^235G/S239D/I332E/G327A
[2]
  Kd: 12.5 nM
[4]
  Kd: 101 nM
[5]
  Kd: 127 nM
[6]
  Kd: 63.9 nM

## trastuzumab IgG1 S298A/E333A/K334A (antibody)
[10]
  ADCC EC50, FIG. 117c, PBMCs F158/F158 FcγRIIIa: 0.2 ng/mL
  ADCC Fold WT, FIG. 117c, PBMCs F158/F158 FcγRIIIa: 3.6 fold
  ADCC log(EC50), FIG. 117c, PBMCs F158/F158 FcγRIIIa: -0.72 log(ng/ml)

## alemtuzumab IgG1 R255Y (antibody)
[1]
  Fold WT: 1.41 fold

## alemtuzumab IgG1 I332D (antibody)
[1]
  Fold WT: 11.2 fold

## trastuzumab IgG1 E283L (antibody)
[8]
  Fold WT: 19.9 fold
[1]
  Fold WT: 3.68 fold

## alemtuzumab IgG1 S298A/E333A/K334A (antibody)
[9]
  Kd: 156 nM
[1]
  Kd: 39 nM

## alemtuzumab IgG1 S239E (antibody)
[8]
  Fold WT: 2.64 fold
[1]
  Fold WT: 3.28 fold

## IgG2_S239D/I332E/^P233EL
[2]
  Kd: 59.6 nM
[3]
  Kd: 1.94 nM
[4]
  Kd: 264 nM
[5]
  Kd: 71.8 nM
[6]
  Kd: 64.2 nM
[7]
  Kd: 21.6 nM

## alemtuzumab IgG1 T260H (antibody)
[1]
  Fold WT: 1.86 fold

## alemtuzumab IgG1 E272H (antibody)
[1]
  Fold WT: 384 fold

## trastuzumab IgG1 A330L/I332E (antibody)
[10]
  ADCC EC50, FIG. 117b: 1.1 ng/mL
  ADCC Fold WT, FIG. 117b: 10.5 fold
  ADCC log(EC50), FIG. 117b: 0.04 log(ng/ml)

## IgG2_P233E/V234L/A235L/^235G/G327A
[2]
  Kd: 69400 nM
[3]
  Kd: 0.145 nM
[4]
  Kd: 663 nM
[5]
  Kd: 313 nM
[6]
  Kd: 260 nM
[7]
  Kd: 73.6 nM

## alemtuzumab IgG1 N297D/A330Y/I332E (aglycosylated) (antibody)
[8]
  fold of glycosylated WT alemtuzumab: 0.4 fold

## alemtuzumab IgG1 WT (antibody)
[9]
  Kd: 730 nM
[1]
  Kd: 68 nM

## alemtuzumab IgG1 E272R (antibody)
[1]
  Fold WT: 1.38 fold

## trastuzumab IgG1 I332D (antibody)
[8]
  Fold WT: 19 fold
[1]
  Fold WT: 2.57 fold

## alemtuzumab IgG1 E258H (antibody)
[8]
  Fold WT: 2.35 fold
[1]
  Fold WT: 5.5 fold

## alemtuzumab IgG1 K326E (antibody)
[8]
  Fold WT: 1.86 fold
[1]
  Fold WT: 3.13 fold

## alemtuzumab IgG1 V264I/I332E (antibody)
[10]
  ADCC EC50, DoHH-2 target cells, PBMCs V158/F158 FcγRIIIa: 4 ng/mL
  ADCC Fold WT, DoHH-2 target cells, PBMCs V158/F158 FcγRIIIa: 2.5 fold
  ADCC log(EC50), DoHH-2 target cells, PBMCs V158/F158 FcγRIIIa: 0.6 log(ng/ml)
[11]
  Fold WT: 15.6 fold
  IC50: 1.1 nM
[8]
  Fold WT: 12.8 fold
  IC50: 0.5 nM
[9]
  Fold WT: 14 fold
  Kd: 52 nM
[1]
  Fold WT: 4 fold
  Kd: 17 nM

## alemtuzumab IgG1 S239D/N297D/I332E (aglycosylated) (antibody)
[8]
  fold of glycosylated WT alemtuzumab: 0.8 fold

## trastuzumab IgG1 S239D/I332E/S298A (antibody)
[9]
  Kd: 4.9 nM
[1]
  Kd: 8.7 nM

## rituximab IgG1 WT (antibody)
[10]
  ADCC EC50, FIG. 118b, WIL2-S target cells, human PBMCs: 1.7 ng/mL
  ADCC EC50, FIG. 118c, PBMCs F158/F158 FcγRIIIa: 5.9 ng/mL
  ADCC log(EC50), FIG. 118b, WIL2-S target cells, human PBMCs: 0.23 log(ng/ml)
  ADCC log(EC50), FIG. 118c, PBMCs F158/F158 FcγRIIIa: 0.77 log(ng/ml)

## alemtuzumab IgG1 S304T (antibody)
[1]
  Fold WT: 12.8 fold

## IgG2_S239D/I332E/^P233L
[2]
  Kd: 53.2 nM
[3]
  Kd: 3.28 nM
[4]
  Kd: 238 nM
[5]
  Kd: 82.2 nM
[6]
  Kd: 67.4 nM
[7]
  Kd: 25.2 nM

## IgG2_P233E/V234L/A235L/^235G/S239D/I332E
[2]
  Kd: 50.2 nM
[3]
  Kd: 0.0908 nM
[4]
  Kd: 84.2 nM
[5]
  Kd: 68.3 nM
[6]
  Kd: 68.5 nM
[7]
  Kd: 12.4 nM

## trastuzumab IgG1 E272H (antibody)
[1]
  Fold WT: 0.65 fold

## rituximab IgG1 S298A/E333A/K334A (antibody)
[10]
  ADCC EC50, FIG. 118b: 0.37 ng/mL
  ADCC Fold WT, FIG. 118b: 4.6 fold
  ADCC log(EC50), FIG. 118b: -0.44 log(ng/ml)

## alemtuzumab IgG1 S239D/I332E (antibody)
[10]
  ADCC EC50, DoHH-2 target cells, PBMCs V158/F158 FcγRIIIa: 3 ng/mL
  ADCC Fold WT, DoHH-2 target cells, PBMCs V158/F158 FcγRIIIa: 3.3 fold
  ADCC log(EC50), DoHH-2 target cells, PBMCs V158/F158 FcγRIIIa: 0.49 log(ng/ml)

## alemtuzumab IgG1 E258Y (antibody)
[1]
  Fold WT: 1.77 fold

## alemtuzumab IgG1 K246H (antibody)
[1]
  Fold WT: 22.4 fold

## alemtuzumab IgG1 S298A (antibody)
[9]
  Kd: 285 nM
[1]
  Kd: 52 nM

## trastuzumab IgG1 K334I (antibody)
[8]
  Fold WT: 15.2 fold
[1]
  Fold WT: 7.1 fold

## alemtuzumab IgG1 V264I (antibody)
[9]
  Kd: 550 nM
[1]
  Kd: 64 nM

## trastuzumab IgG1 A330Y/I332E (antibody)
[10]
  ADCC EC50, FIG. 117b: 0.9 ng/mL
  ADCC Fold WT, FIG. 117b: 12.8 fold
  ADCC log(EC50), FIG. 117b: -0.04 log(ng/ml)
